Data: patent publication US20220089723A1 (UNIVERSITY HEALTH NETWORK, published 2022)

Biological target: T1, Human LILRB3 (human, UniProt O75022 24-631)
T1 construct: whole, on cells; Endogenous receptor on primary human PBMCs and whole blood cells, not a recombinant construct; also called CD85A; ILT5
Experiment: flow cytometry; human PBMCs and fresh whole blood stained with 3A3 and gated on cell subsets
Description: LILRB3 surface expression was measured on various hematopoietic subsets in the form of two-dimensional flow cytometry (FCM) representations called quantile contour plots (probability plots). Peripheral blood mononuclear cells (PBMCs) from a healthy human donor were stained with the LILRB3 3A3 antibody as well as antibodies specific for the indicated cell subset. FIG. 1A plots depict LILRB3 expression by gated CD3+CD4+T cells, CD3+CD8+ T cells or CD11b+ monocytes. In FIG. 1B, fresh whole blood from a healthy human donor was stained as in FIG. 1A. Plots depict LILRB3 expression by gated CD3+CD4+ T cells, CD3+CD8+ T cells, CD11b+ monocytes or CD11b+ granulocytes. Percentages of gated cells and of LILRB3+ cells within the gated population are depicted inside the plots (first and second numbers, respectively). […] Specificity of the LILRB3 staining was determined by staining all of the above cell subsets with an IgG1 isotype control antibody. Data are representative of several independent experiments utilizing different human blood samples.

T1 sequence (O75022 24-631): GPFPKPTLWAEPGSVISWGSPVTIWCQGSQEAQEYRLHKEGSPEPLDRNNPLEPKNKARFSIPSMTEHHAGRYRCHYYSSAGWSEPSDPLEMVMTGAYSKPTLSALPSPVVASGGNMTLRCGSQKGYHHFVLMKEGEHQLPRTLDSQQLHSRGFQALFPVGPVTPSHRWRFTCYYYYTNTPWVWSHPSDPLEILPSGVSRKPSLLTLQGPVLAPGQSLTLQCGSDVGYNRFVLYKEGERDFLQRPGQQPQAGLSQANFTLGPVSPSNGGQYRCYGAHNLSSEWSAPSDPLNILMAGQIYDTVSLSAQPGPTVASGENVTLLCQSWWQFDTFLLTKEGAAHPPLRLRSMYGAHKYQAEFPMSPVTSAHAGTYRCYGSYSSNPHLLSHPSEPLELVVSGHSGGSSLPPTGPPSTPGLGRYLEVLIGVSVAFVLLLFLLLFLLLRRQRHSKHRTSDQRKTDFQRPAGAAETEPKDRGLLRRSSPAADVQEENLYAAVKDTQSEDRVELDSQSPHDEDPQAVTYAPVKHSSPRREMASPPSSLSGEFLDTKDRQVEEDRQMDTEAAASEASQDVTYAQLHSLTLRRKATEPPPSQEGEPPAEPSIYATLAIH

B1: LILRB3 3A3 antibody (antibody, V domains shown)
VH: QVQLQQSRTELMKPGASVKLSCKATGYTFTGYWIEWVKQRPGHGLEWIGEILPGSTNINYNERFKGKATITADTSSNTAYMQLSSLTTEDSAIYYCARWASVVVGDYWGQGATLTVSS
VL: QIVLTQSPAIMSASLGERVTMTCTASSSVSSSYLHWYQQKPGSSPKLWIYSTSNLASGVPARFSGSGSGTSYSLTISSMEAEDAATYYCHQYHRSPPTFGGGTKLEIKR
notes: the entries also seem to hold an N-terminal leader and part of the constant region
B1: binds.
